Test results taken from patent US20250313627A1 (FUSE BIOTHERAPEUTICS, published 2025).
Where a chain is given by its changes, count along the chain named. Like-named read-outs stand apart in the source and are kept apart here.

B1: FUSE-489 (h5A1-Ac13) (bispecific antibody, human IgG1, lambda, L234A L235A)
heavy: EVQLVESGGGLVQPGGSLRLSCAASGFTFSTYAMNWVRQAPGKGLEWVARIRSKYNNYATYYADSVKDRFTISRDDSKNTLYLQMNSLRAEDTAVYYCARHGNFGNSYVSWFAYWGQGTMVTVSSASTKGPSVFPLAPSSKSTSGGTAALGCLVKDYFPEPVTVSWNSGALTSGVHTFPAVLQSSGLYSLSSVVTVPSSSLGTQTYICNVNHKPSNTKVDKKVEPKSCDKTHTCPPCPAPEAAGGPSVFLFPPKPKDTLMISRTPEVTCVVVDVSHEDPEVKFNWYVDGVEVHNAKTKPREEQYNSTYRVVSVLTVLHQDWLNGKEYKCKVSNKALPAPIEKTISKAKGQPREPQVYTLPPSREEMTKNQVSLSCAVKGFYPSDIAVEWESNGQPENNYKTTPPVLDSDGSFFLVSKLTVDKSRWQQGNVFSCSVMHEALHNRFTQKSLSLSPGK
chain: QVQLQESGGGLVQPGGSLRLSCTASGYTNRLKCMGWVRQAPGKEREEVATISTGTGNTYYADSVKGRFTISRDNSKNTLYLQMNSLRAEDTAMYYCAADVRPDGTTCHYNSGGQGTQVTVSSEPKSSDKTHTCPPCPAPEAAGGPSVFLFPPKPKDTLMISRTPEVTCVVVDVSHEDPEVKFNWYVDGVEVHNAKTKPREEQYNSTYRVVSVLTVLHQDWLNGKEYKCKVSNKALPAPIEKTISKAKGQPREPQVYTLPPSREEMTKNQVSLWCLVKGFYPSDIAVEWESNGQPENNYKTTPPVLDSDGSFFLYSKLTVDKSRWQQGNVFSCSVMHEALHNHYTQKSLSLSPGK
light: QAVVTQEPSLTVSPGGTVTLTCRSSTGAVTTSNYANWVQQKPGQAPRGLIGGTNKRAPGTPARFSGSLLGGKAALTLSGVQPEDEAEYYCALWYSNLWVFGGGTKLTVLGQPKAAPSVTLFPPSSEELQANKATLVCLISDFYPGAVTVAWKADSSPVKAGVETTTPSKQSNNKYAASSYLSLTPEQWKSHRSYSCQVTHEGSTVEKTVAPTECSGGGGSGGGGSGGGGSGGGGSQVQLQESGGGLVQPGGSLRLSCTASGYTNRLKCMGWVRQAPGKEREEVATISTGTGNTYYADSVKGRFTISRDNSKNTLYLQMNSLRAEDTAMYYCAADVRPDGTTCHYNSGGQGTQVTVSS
notes: Format Ac13
B2: FUSE-497 (h5A1-Ac13) (bispecific antibody, human IgG1, lambda, L234A L235A)
heavy: B1 heavy
chain: EVQLLESGGGLVPRGGSLRLSCTASGYTNRLKCMGWFRQAPGKEREEIATISTGTGNTYYADSVKGRFTISRDNSRNTLYLQMKTLRAEDTAVYYCAADVRPDGTTCHYNSWGQGTQVTVSSEPKSSDKTHTCPPCPAPEAAGGPSVFLFPPKPKDTLMISRTPEVTCVVVDVSHEDPEVKFNWYVDGVEVHNAKTKPREEQYNSTYRVVSVLTVLHQDWLNGKEYKCKVSNKALPAPIEKTISKAKGQPREPQVYTLPPSREEMTKNQVSLWCLVKGFYPSDIAVEWESNGQPENNYKTTPPVLDSDGSFFLYSKLTVDKSRWQQGNVFSCSVMHEALHNHYTQKSLSLSPGK
light: QAVVTQEPSLTVSPGGTVTLTCRSSTGAVTTSNYANWVQQKPGQAPRGLIGGTNKRAPGTPARFSGSLLGGKAALTLSGVQPEDEAEYYCALWYSNLWVFGGGTKLTVLGQPKAAPSVTLFPPSSEELQANKATLVCLISDFYPGAVTVAWKADSSPVKAGVETTTPSKQSNNKYAASSYLSLTPEQWKSHRSYSCQVTHEGSTVEKTVAPTECSGGGGSGGGGSGGGGSGGGGSEVQLLESGGGLVPRGGSLRLSCTASGYTNRLKCMGWFRQAPGKEREEIATISTGTGNTYYADSVKGRFTISRDNSRNTLYLQMKTLRAEDTAVYYCAADVRPDGTTCHYNSWGQGTQVTVSS
notes: Format Ac13
B3: FUSE-498 (h5A1-Ac13) (bispecific antibody, human IgG1, lambda, L234A L235A)
heavy: B1 heavy
chain: B1 chain with Q1E, Q5V, V37F, V48I, I70F, M93V
light: B1 light with Q236E, Q240V, V272F, V283I, I305F, M328V
notes: Format Ac13
B4: FUSE-597 (h5A1-HK2 Fc) (Fc fusion)
chain: EVQLLESGGGLVQPGGSLRLSCAASGYTNRLKCMGWFRQAPGKERELASISTGTGNTYYADSVKGRFTISRDGSKNTLYLQMNSLRAEDTAVYYCAADVRPDGTTCHYNSRGQGTLVTVSS
notes: VHH-Fc format; not shown: Fc of the VHH-Fc format
B5: FUSE-569 (h5A1-FA17 Fc) (Fc fusion)
chain: B4 chain with E1Q, L5V, A23S, G73N, E88D, R111W, L116Q
notes: as for B4
B6: FUSE-524 (h5A1-HK1_Fc) (Fc fusion)
chain: B4 chain with G73N, R86K
notes: VHH-Fc format; also called humanized clone 5A1-HK1; 5A1-H1; not shown: Fc of the VHH-Fc format
B7: FUSE-598 (h5A1-HK6 Fc) (Fc fusion)
chain: B4 chain with R71Q
notes: as for B4
B8: FUSE-570 (h5A1-FA18 Fc) (Fc fusion)
chain: QVQLVESGGGLVQPGGSLRLSCSASGYTNRLKCMGWFRQAPGKEREEIATISSGTGNTYYADSVKGRFTFSRDNSKNTLYLQMNSLRAEDTGMYYCAADVRPDGTTCHYNSGGQGTQVTVSS
notes: as for B4
B9: FUSE-563 (h5A1-FA11 Fc) (Fc fusion)
chain: EVQLLESGGGLVQPGGSLKLSCTASGYTNRLKCMGWFRQAPGKEREEIATISTGTGNTYYADSVKGRFTISQDRSKNTLYLQMNSLRAEDTAVYYCAADVRPDGTTCHYNSWGQGTLVTVSS
notes: as for B4

Experiments:
[1] = target: T1, human ROR1 (Receptor Tyrosine Kinase-Like Orphan Receptor 1) on the cell surface (human, UniProt Q01973 30-937); experiment: flow cytometry, B16-F10 cells expressing human ROR1 (high density)
T1 construct: whole, on cells; engineered into B16-F10 (high density) and LS174T (low density) cells; also called B16-F10-ROR1-H; LS174T-ROR1-L
T1 sequence (Q01973 30-937): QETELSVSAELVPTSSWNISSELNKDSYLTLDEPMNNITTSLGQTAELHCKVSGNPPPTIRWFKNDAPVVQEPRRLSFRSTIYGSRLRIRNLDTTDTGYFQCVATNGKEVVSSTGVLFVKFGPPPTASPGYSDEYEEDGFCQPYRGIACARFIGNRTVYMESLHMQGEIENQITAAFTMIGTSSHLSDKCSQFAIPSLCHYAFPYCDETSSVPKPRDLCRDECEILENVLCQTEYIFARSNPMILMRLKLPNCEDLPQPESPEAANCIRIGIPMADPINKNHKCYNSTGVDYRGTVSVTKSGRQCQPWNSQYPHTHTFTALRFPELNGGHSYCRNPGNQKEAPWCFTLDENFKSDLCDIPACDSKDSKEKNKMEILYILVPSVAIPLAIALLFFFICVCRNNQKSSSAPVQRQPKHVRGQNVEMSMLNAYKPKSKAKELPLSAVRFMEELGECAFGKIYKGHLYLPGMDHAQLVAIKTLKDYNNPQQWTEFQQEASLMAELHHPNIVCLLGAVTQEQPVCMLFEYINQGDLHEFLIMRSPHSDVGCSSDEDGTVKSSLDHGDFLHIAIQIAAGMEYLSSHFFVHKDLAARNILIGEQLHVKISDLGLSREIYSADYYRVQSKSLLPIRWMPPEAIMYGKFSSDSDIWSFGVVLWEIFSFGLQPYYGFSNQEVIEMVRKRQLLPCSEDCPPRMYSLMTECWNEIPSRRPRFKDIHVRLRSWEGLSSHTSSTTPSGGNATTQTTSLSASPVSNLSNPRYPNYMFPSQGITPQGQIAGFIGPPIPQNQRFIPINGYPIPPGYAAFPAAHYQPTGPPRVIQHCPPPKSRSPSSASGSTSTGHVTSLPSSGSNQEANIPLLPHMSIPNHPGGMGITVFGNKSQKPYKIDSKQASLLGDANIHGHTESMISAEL
Description: (§1) As shown in the tables below, mouse B16-F10 melanoma (Tables 9A-9F) or LS174T human colorectal adenocarcinoma (Tables 9G-9H) cells genetically engineered to express human ROR1 at high and low densities, respectively, were stained for flow cytometric analysis with 100 nM of humanized variants of the ROR1 specific VHHs, 5A1 or 2A11 in either a VHH-Fc format or the Ac13 format shown in FIG. 1. Cells were analyzed on a flow cytometer after the primary test article was fluorescently tagged with a goat anti human IgG-Fc specific PE secondary antibody. The positive control used was PE conjugated anti-human ROR1 clone 2A2. Negative controls included a PE labeled mouse IgG Ab, the secondary antibody only, the combination of a Hen Egg Lysozyme (HEL) specific antibody plus goat anti human IgG-Fc specific PE and Fluorescence Minus One (FMO). Other controls included the non-humanized version of 5A1-Fc (FUSE179), 2A11-Fc (FUSE112) and 5A1-Ac13 (FUSE488). Humanized variants were generated using computational design (FUSE489, FUSE497-498, FUSE563, FUSE569-570, and BI-HU9-VHH11-33), a yeast display library in which mutations were inserted into the Vernier zone residues of human framework indicated in GenBank accession number M99660 (FUSE524-525, FUSE589, FUSE597-598, FUSE537, FUSE661-662, BI-HU9-HK and BI-HU9-HK-1), and a second yeast display library in which mutations were inserted into the Vernier zone residues of human framework indicated in GenBank accession number AWH66715 and amino acid position 103 within CDR3 (FUSE559, FUSE590-596, BI-HU9-VH9-1, FUSE654-655 and FUSE661-662. Affinity matured variants of FUSE559 were also generated using computational design (F22158101-21; Table 9H).

[2] = target: T1, human ROR1 (Receptor Tyrosine …); experiment: as above; remark: listed apart in the source
Description: as §1

[3] = target: T1, human ROR1 (Receptor Tyrosine …); experiment: as above; remark: listed apart in the source
Description: as §1

[4] = target: T1, human ROR1 (Receptor Tyrosine …); experiment: flow cytometry on B16-F10 cells engineered to express human ROR1, secondary antibody to the IgG1 Fc
Description: As shown in FIG. 15 the apparent binding affinity (EC50-binding) of the ROR1 specific VHH-Fc incorporating either the non humanized VHH clone 5A1 (FUSE179; black circle), the humanized clone 5A1-FA9-HK1 (FUSE559; black square) or the humanized clone 5A1-HK1 (FUSE524; black triangle) was calculated. Shown is a non-linear x-y plot of binding to B16-F10 cell engineered to express human ROR1 relative to the concentration of test article used for staining. A Hen Egg Lysozyme (HEL)-specific antibody was used as the negative isotype control. Binding was measured via flow cytometry using a fluorescently labeled secondary antibody specific for the Fc domain of IgG1. A summary table of EC50s and maximum MFI is shown beneath under the graph.

Binder | MFI [1] | MFI [3] | also measured
B1 | 1060 | – | –
B2 | 811 | – | –
B3 | 1360 | – | –
B4 | – | – | MFI [2]: 10100
B5 | – | 590 | –
B6 | 6470 | – | EC50 [4]: 2.74 nM; Max MFI [4]: 7080 MFI
B7 | – | – | MFI [2]: 9560
B8 | – | 583 | –
B9 | – | 388 | –
